From patent US20070032403A1, “Crystal structure of the ITK kinase domain” (Boehringer Ingelheim Pharmaceuticals, Inc., priority 2003, published 2007)

Experiments:
[1] = target: T1, GST-ITK/KD/G354 (wild-type ITK kinase domain) (Homo sapiens, UniProt Q08881); test: Tec Family Kinase Assay (DELFIA), wild-type ITK kinase domain; assay type: biochemical; conditions: 15 μM ATP substrate mix
T1 construct: made in house; host or cells: Spodoptera frugiperda Sf21 cells, baculovirus

[2] = target: T2, GST-ITK/KD/G354/F437Y (ITK F437Y) (Homo sapiens, UniProt Q08881, F437Y); test: Tec Family Kinase Assay (DELFIA), F437Y mutant ITK kinase domain; assay type: biochemical; conditions: for IC50: GST-ITK/KD/G354/F437Y mutant; for Fold Difference in IC50: ITK F437Y IC50 versus wild-type ITK IC50
T2 construct: made in house; host or cells: Spodoptera frugiperda Sf21 cells, baculovirus

poly Glu4: Tyr1 (PGTYR) = test: Catalytic activity of ITK kinase domain constructs (kinase assay); assay type: biochemical; conditions: for Kinase Activity: Using 250 nM enzyme; for catalytic activity (in words): human ITK kinase domain fragments
Description: ITK is purified as a GST-fusion protein to test for catalytic activity. The kinase activity is measured using DELFIA (Dissociation Enhanced Lanthanide Fluoroimmunoassay) which utilizes europium chelate-labeled anti-phosphotyrosine antibodies to detect phosphate transfer to a random polymer, poly Glu4: Tyr1 (PGTYR). The screen utilizes the Zymark Allegro UHTS system to dispense reagents, buffers and samples for assay, and also to wash plates. The kinase assay is performed in kinase assay buffer (50 mM HEPES, pH 7.0, 25 mM MgCl2, 5 mM MnCl2, 50 mM KCl, 100 μM Na3VO4, 0.2% BSA, 0.01% CHAPS, 200 μM TCEP). Test samples initially dissolved in DMSO at 1 mg/mL, are pre-diluted for dose response (9 doses with starting final concentration of 3 μg/mL, 1 to 3 serial dilutions) with the assay buffer in 384-well polypropylene microtiter plates. […] Background wells are incubated with buffer, rather than 20 μL enzyme. The assay plates are incubated for 30 min at room temperature. Following incubation, the assay plates are washed three times with 100 μL wash buffer (50 mM Tris-HCL, pH 7.4, 150 mM NaCl, 0.05% Tween 20, 0.2% BSA). A 50 μL aliquot of europium-labeled anti-phosphotyrosine (Eu^3+-PT66, Wallac CR04-100) diluted in 50 mM Tris-HCl, pH 7.8, 150 mM NaCl, 10 μM DTPA, 0.05% Tween 40, 0.2% BSA, 0.05% BGG (1 nM final concentration) is added to each well and incubated for 30 min at room temperature. Upon completion of the incubation, the plate is washed four times with 100 μL of wash buffer and 50 μL of DELFIA Enhancement Solution (Wallac) is added to each well. After 15 min, time-resolved fluorescence is measured on the LJL's Analyst (excitation at 360 nm, emission at 620 nm, EU 400 Dichroic Mirror) after a delay time of 250 μs. An IC50 can be obtained by fitting the rates vs. compound/ligand concentration data into a simple competitive inhibitor model. Under these assay conditions, a 3-fold difference in compound potency (IC50) is considered within the variation of the assay. Preferred ligands will have an IC50<1000 nM.
A significant obstacle in the process of obtaining the 3-dimensional structure of a protein by X-ray crystallography is the identification of a protein fragment that is amenable to the formation of protein crystals of suitable quality. Since kinases often have multiple domains, one strategy that increases the likelihood of generating protein crystals of the kinase domain (catalytic) fragment has been to delete the other domains. Furthermore, by making a kinase domain fragment analogous to that of a related kinase for which a crystal structure has been determined, one may further increase the probability of generating suitable protein crystals. Using these concepts, the human ITK/KD/Q343 construct was generated. Theory predicts that a more compactly folded protein has a greater probability of producing high quality protein crystals. Therefore, the human ITK/KD/Q343 construct was subjected to limited proteolysis with trypsin to identify any fragments of the construct that are easily accessible to the protease and are thus likely to be less compactly folded. Using this strategy, the human ITK/KD/G354 and ITK/KD/S361 constructs were designed. To prioritize the three human ITK kinase domain protein fragments for crystallization trials, each was assayed for catalytic activity and for structural foldedness by circular dichroism-monitored thermal denaturation. […] Consequently, the ITK/KD/G354 construct was prioritized for structural studies since it was catalytically active and predicted to be tightly folded. To further increase the probability of obtaining suitable crystals, a murine construct (ITK/KD/G353) analogous to the human ITK/KD/G354 construct was generated. […]

[3] = Thermal denaturation of ITK constructs (circular dichroism-monitored); assay type: physicochemical; conditions: for Tm: 5 μM construct, pH 7.0 buffer, 230 nm, 2 to 100° C. at 0.2° C./min; for Tm comparison (in words): thermal denaturation studies
Description: Thermal denaturation experiments were performed on a Jasco J-720 spectropolarimeter equipped with a Peltier thermostatic cell holder. For each measurement, a 1 cm quartz cuvette was loaded with 5 μM ITK kinase domain construct in a pH 7.0 buffer containing 10 mM sodium phosphate, 100 mM NaCl and 1 mM TCEP. Absorbance data at 230 nm was collected as the temperature was scanned from 2 to 100° C. at a ramp rate of 0.2° C./min. The melting temperature (Tm) for each sample was calculated as the maximum deflection point of the first derivative of the melting transition using Origin (version 7.0).
A significant obstacle in the process of obtaining the 3-dimensional structure of a protein by X-ray crystallography is the identification of a protein fragment that is amenable to the formation of protein crystals of suitable quality. Since kinases often have multiple domains, one strategy that increases the likelihood of generating protein crystals of the kinase domain (catalytic) fragment has been to delete the other domains. Furthermore, by making a kinase domain fragment analogous to that of a related kinase for which a crystal structure has been determined, one may further increase the probability of generating suitable protein crystals. Using these concepts, the human ITK/KD/Q343 construct was generated. Theory predicts that a more compactly folded protein has a greater probability of producing high quality protein crystals. Therefore, the human ITK/KD/Q343 construct was subjected to limited proteolysis with trypsin to identify any fragments of the construct that are easily accessible to the protease and are thus likely to be less compactly folded. Using this strategy, the human ITK/KD/G354 and ITK/KD/S361 constructs were designed. To prioritize the three human ITK kinase domain protein fragments for crystallization trials, each was assayed for catalytic activity and for structural foldedness by circular dichroism-monitored thermal denaturation. […] Consequently, the ITK/KD/G354 construct was prioritized for structural studies since it was catalytically active and predicted to be tightly folded. To further increase the probability of obtaining suitable crystals, a murine construct (ITK/KD/G353) analogous to the human ITK/KD/G354 construct was generated. This murine ITK kinase domain construct has 3 conservative and 7 non-conservative amino acid substitutions when compared with the human ITK/KD/G354 construct which may alter the conformation or surface properties of the protein thus providing alternative opportunities for crystal formation.

T2 sequence (Q08881 with tags, fused parts or gaps F437Y): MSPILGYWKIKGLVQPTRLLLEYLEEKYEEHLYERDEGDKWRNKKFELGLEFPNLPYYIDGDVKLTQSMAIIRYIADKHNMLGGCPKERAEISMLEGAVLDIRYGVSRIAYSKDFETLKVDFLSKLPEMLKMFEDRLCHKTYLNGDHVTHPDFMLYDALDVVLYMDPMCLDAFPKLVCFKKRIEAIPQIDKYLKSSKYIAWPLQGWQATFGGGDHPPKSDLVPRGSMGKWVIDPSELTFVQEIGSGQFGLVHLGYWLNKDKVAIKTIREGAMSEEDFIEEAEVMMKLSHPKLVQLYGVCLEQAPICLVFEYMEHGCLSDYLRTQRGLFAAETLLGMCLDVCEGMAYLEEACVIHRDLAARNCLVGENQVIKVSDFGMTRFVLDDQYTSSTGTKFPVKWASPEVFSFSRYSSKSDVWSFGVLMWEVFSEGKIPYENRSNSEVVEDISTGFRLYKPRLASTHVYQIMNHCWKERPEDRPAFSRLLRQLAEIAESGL
T1 sequence (Q08881 with tags, fused parts or gaps): as the sequence (Q08881 with tags, fused parts or gaps F437Y) above, with Y311F counted along it

Row | Molecule | IC50 [1] | IC50 [2] | Fold Difference in IC50 [2] | Kinase Activity (poly Glu4: Tyr1 (PGTYR)) | catalytic activity (in words) (poly Glu4: Tyr1 (PGTYR)) | Tm [3] | Tm comparison (in words) [3]
1 | Cc1ccc2c(c1)nc(NC(=O)c1ccc(C#N)cc1)n2CCC(N)=O [Compound 3] | 440 nM | 500 nM | 1.1 | – | – | – | –
2 | ITK/KD/Q343: human ITK kinase domain fragment comprising ITK residues 343-620 (SEQ ID NO. 9) (protein, listed as Homo sapiens) GSMQKAPVTAGLRYGKWVIDPSELTFVQEIGSGQFGLVHLGYWLNKDKVAIKTIREGAMSEEDFIEEAEVMMKLSHPKLVQLYGVCLEQAPICLVFEFMEHGCLSDYLRTQRGLFAAETLLGMCLDVCEGMAYLEEACVIHRDLAARNCLVGENQVIKVSDFGMTRFVLDDQYTSSTGTKFPVKWASPEVFSFSRYSSKSDVWSFGVLMWEVFSEGKIPYENRSNSEVVEDISTGFRLYKPRLASTHVYQIMNHCWKERPEDRPAFSRLLRQLAEIAESGL | – | – | – | 2000 Fluorescent Units | showed significant catalytic activity | 50.0 °C | –
3 | ITK/KD/S361: human ITK kinase domain fragment comprising ITK residues 361-620 (SEQ ID NO. 12) (protein, listed as Homo sapiens) GSMSELTFVQEIGSGQFGLVHLGYWLNKDKVAIKTIREGAMSEEDFIEEAEVMMKLSHPKLVQLYGVCLEQAPICLVFEFMEHGCLSDYLRTQRGLFAAETLLGMCLDVCEGMAYLEEACVIHRDLAARNCLVGENQVIKVSDFGMTRFVLDDQYTSSTGTKFPVKWASPEVFSFSRYSSKSDVWSFGVLMWEVFSEGKIPYENRSNSEVVEDISTGFRLYKPRLASTHVYQIMNHCWKERPEDRPAFSRLLRQLAEIAESGL | – | – | – | 30 Fluorescent Units | did not possess activity above background levels | 72.8 °C | highest Tm
4 | ITK/KD/G354: human ITK kinase domain fragment comprising ITK residues 354-620 (SEQ ID NO. 1) (protein, listed as Homo sapiens) GSMGKWVIDPSELTFVQEIGSGQFGLVHLGYWLNKDKVAIKTIREGAMSEEDFIEEAEVMMKLSHPKLVQLYGVCLEQAPICLVFEFMEHGCLSDYLRTQRGLFAAETLLGMCLDVCEGMAYLEEACVIHRDLAARNCLVGENQVIKVSDFGMTRFVLDDQYTSSTGTKFPVKWASPEVFSFSRYSSKSDVWSFGVLMWEVFSEGKIPYENRSNSEVVEDISTGFRLYKPRLASTHVYQIMNHCWKERPEDRPAFSRLLRQLAEIAESGL | – | – | – | 910 Fluorescent Units | showed significant catalytic activity | 67.2 °C | higher Tm than ITK/KD/Q343

Further lines, with some results ahead:

Row | IC50 [1] | IC50 [2] | Fold Difference in IC50 [2] | Molecule | Kinase Activity (poly Glu4: Tyr1 (PGTYR)) | catalytic activity (in words) (poly Glu4: Tyr1 (PGTYR)) | Tm [3] | Tm comparison (in words) [3]
5 | 460 nM | 1200 nM | 2.6 | CNc1ccc2c(c1)nc(NC(=O)c1ccc(C#N)cc1)n2CCC(N)=O [Compound 1] | – | – | – | –
6 | 15 nM | 160 nM | 10.7 | CN(C(=O)C1CCCCC1)c1ccc2c(c1)nc(NC(=O)c1ccc(C#N)cc1)n2CCCN1CCCC1=O [Compound 7] | – | – | – | –
